The values below come from publication doi:10.1101/2024.02.23.581826 (bioRxiv, 2024).

Assay in all cases: SPR
For assay [1], the target named is T1, isolated CNBH domain of mouse EAG1 (mEAG1) channels, residues 552-708 (mouse, UniProt Q60603 552-708).
T1 sequence (looked up): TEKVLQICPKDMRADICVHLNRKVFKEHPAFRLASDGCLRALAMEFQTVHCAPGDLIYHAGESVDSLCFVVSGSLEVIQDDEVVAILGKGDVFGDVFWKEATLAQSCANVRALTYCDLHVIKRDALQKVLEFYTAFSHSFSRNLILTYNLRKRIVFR

Assay [2] addresses T1, isolated CNBH domain of mouse EAG1 …. The source holds these as a separate data set.
Assay [3] has the same target. The source holds these as a separate data set.
Assay [4] shares this target. This is another data set of the same source.

Several values for one entry are separate records, joined by “and”; a condition that tells them apart may be missing. Equal values may be shown once. Read-outs that look alike come from different tables or passages of the source.

B1: isolated PAS domain of mouse EAG1 (mEAG1) channels, residues 7-136 (domain or fragment, UniProt Q60603 7-136, looked up)
chain: RRGLVAPQNTFLENIVRRSNDTNFVLGNAQIVDWPIVYSNDGFCKLSGYHRAEVMQKSSACSFMYGELTDKDTVEKVRQTFENYEMNSFEILMYKKNRTPVWFFVKIAPIRNEQDKVVLFLCTFSDITAF
In the case of B1, the Kd is 1800 nM in assay [1]; 900 nM and 500 nM in assay [2]; 2500 nM and 2900 nM in assay [3]; 1600 nM in assay [4].
